In article PMC12373997, “Conserved function of the HAUS6 calponin homology domain in anchoring augmin for microtubule branching” (Nature Communications, 2025) one finds Kd data, which are given here for 1 molecule.

The target of the test is T1, Taxol-stabilized microtubules polymerised from purified porcine brain tubulin (porcine, UniProt P02550 1-451; P02554 1-439).
T1 construct: P81947 was used only for the MD model; Q6B856 was used only for the MD model; Polymer of α/β-tubulin heterodimers (13- and 14-protofilament MTs in cryo-EM); brain tubulin is probably a mix of isotypes; Concentrations are α/β-tubulin heterodimer molarity; also called MTs; MT; source: tubulin purified from porcine brain; polymerised in vitro with GTP and paclitaxel
As to the kind of experiment: co-sedimentation; tubulin co-sedimentation: taxol-stabilized MTs (varied, α/β-tubulin heterodimer molarity) with 1 µM purified N-clamp, 0.25 mg/ml BSA, BRB80-MT buffer (80 mM PIPES, 1 mM MgCl2, 1 mM EGTA, 12.5% glycerol, pH 6.8), 20 min at room temperature, 200,000 g 10 min 27 °C; SDS-PAGE densitometry of pellet; apparent Kd from a quadratic fit. The following applies: both partners purified.

B1: D. melanogaster augmin N-clamp with Dgt4 lacking its N-terminal extension (complex)
chain 1: MSDAVDKMLAGMAANRQTMNRQLAKIDEIMERSNNTLLHIESNSKAFSQNVALSETQKMYNLRPEAEMTLSKILENFKLLMSSSDQREETYSALEGCLAYRHRVEHLGSSVRKLVALYDTVGQMKNSQEEQYASEDSP
chain 2: MDRTIIAPWKAEEKEQSEKLHRKLQGLALVHPLPDELRKLIAWDMFLKPNQVAFVHVMHYLFRLLDPAEFKRRFFWPITDKKSEANFRSSTVEYLKHLNEKHQLHWANIKSYLVVMPGGMRFINFLLEFVGFVIQELIKQREKSLGLEAGTPNVSAKVMARQNAVMKEYASSYVVNLEENTALLRDKTQKIRRLMADLSADMGVPEEQLADDGFLDEFEATAALGVERVITQPTERKFDLEASLCGLKEAIDLFQVKQAENNQSKEAVEKALRGMRVLFD
chain 3: METNVDFSSISSKLYRKYAQHVRNLKDVCVSKTVMKPGAFFDSLQQMMEEEAAATTPPRDLSSVADYAELFKTLEEYPANLQKMPKKRELQRTNSTLLRGADESVAMGINTSNVSLSLTRLEEQRSAVDVYNDFKGFQRKLAKIYDEAAALDTTESIYKQKLTQLHGFAQQLEKLMPTGGESPPDAFTSEQ
chain 4: MDDIQYLLHLEAMRRFQEDSRNVKRQVEEQVRIWLDAKCEYQRDFGRLARLLKCGALQAAVDAHRVSDVNQVDQAAKDIASLRSKLGS
modifications: Dgt4-deltaNT start (MDDIQY) read from the printed N-del primer, Dgt4 end from 9RPD entity 1; Dgt6 from 9RPD entity 2; Msd5 end is estimated from the length of the 9RPD fusion entity; Msd1 is assumed …
Turning to B1, the Kd turned out to be 2900 nM.
